This experiment addresses T1, recombinant 6PGD (re6PGD) (UniProt P52209 1-483).
T1 construct: 6-phosphogluconate dehydrogenase (6PGD), wild type; source: bacterially expressed recombinant
T1 sequence (looked up): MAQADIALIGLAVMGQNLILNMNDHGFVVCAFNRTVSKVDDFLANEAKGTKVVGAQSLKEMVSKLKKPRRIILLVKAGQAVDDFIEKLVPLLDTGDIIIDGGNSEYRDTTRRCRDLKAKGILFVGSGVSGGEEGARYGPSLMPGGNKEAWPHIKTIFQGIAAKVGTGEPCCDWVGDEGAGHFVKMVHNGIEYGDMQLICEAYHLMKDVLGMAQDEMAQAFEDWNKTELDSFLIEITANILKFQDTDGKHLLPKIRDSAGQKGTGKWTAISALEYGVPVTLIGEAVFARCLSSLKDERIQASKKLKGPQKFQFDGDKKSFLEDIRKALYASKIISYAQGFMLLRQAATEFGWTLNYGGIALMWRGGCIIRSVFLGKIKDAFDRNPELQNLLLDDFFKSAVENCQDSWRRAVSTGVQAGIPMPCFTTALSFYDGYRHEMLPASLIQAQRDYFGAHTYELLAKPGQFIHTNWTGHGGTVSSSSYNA
In words: MST; microscale thermophoresis of 6PGD and ALKBH5 (Fig. S5A); conditions not shown. Conditions: both partners purified.

B1: recombinant ALKBH5 (reALKBH5; aa:66–292) (domain or fragment, UniProt Q6P6C2 66-292, looked up)
chain: PERSDYEEQQLQKEEEARKVKSGIRQMRLFSQDECAKIEARIDEVVSRAEKGLYNEHTVDRAPLRNKYFFGEGYTYGAQLQKRGPGQERLYPPGDVDEIPEWVHQLVIQKLVEHRVIPEGFVNSAVINDYQPGGCIVSHVDPIHIFERPIVSVSFFSDSALCFGCKFQFKPIRVSEPVLSLPVRRGSVTVLSGYAADEITHCIRPQDIKERRAVIILRKTRLDAPRL
notes: ALKBH5, residues 66-292; The range 66-292 is printed where the in vitro methylation assay is told; source: recombinant
As for B1, the Kd was found to be 1630 nM.

The values above are taken from article PMC12224427, “The non-metabolic function of 6PGD coordinates CCNA2 and HMGA2 expression to drive colorectal cancer progression and drug response” (Journal of Experimental & Clinical Cancer Research : CR, 2025).
